Numbering of substitutions follows the chain as printed.
B1: G9.2-17 Fab (Fab, V domains shown)
VH: EVQLVESGGGLVQPGGSLRLSCAASGFTVSSSSIHWVRQAPGKGLEWVAYISSSSGYTYYADSVKGRFTISADTSKNTAYLQMNSLRAEDTAVYYCARYWSYPSWWPYRGMDYWGQGTLVTVSS
VL: DIQMTQSPSSLSASVGDRVTITCRASQSVSSAVAWYQQKPGKAPKLLIYSASSLYSGVPSRFSGSRSGTDFTLTISSLQPEDFATYYCQQSSTDPITFGQGTKVEIKR
B2: G9.2-17mut6 Fab (Fab, V domains shown)
VH: B1 VH with W106S
VL: B1 VL
B3: G9.1-5 Fab (Fab, V domains shown)
VH: EVQLVESGGGLVQPGGSLRLSCAASGFTIYYSSIHWVRQAPGKGLEWVASISSSYGSTYYADSVKGRFTISADTSKNTAYLQMNSLRAEDTAVYYCARSVSWYPYYYYYGYGSGLDYWGQGTLVTVSS
VL: DIQMTQSPSSLSASVGDRVTITCRASQSVSSAVAWYQQKPGKAPKLLIYSASSLYSGVPSRFSGSRSGTDFTLTISSLQPEDFATYYCQQYYGWFYPVTFGQGTKVEIKR
B4: G9.1-8 Fab (Fab, V domains shown)
VH: EVQLVESGGGLVQPGGSLRLSCAASGFTVSSSSIHWVRQAPGKGLEWVAYIYPYSGYTSYADSVKGRFTISADTSKNTAYLQMNSLRAEDTAVYYCARYSTYSWGGIGKWVWGMDYWGQGTLVTVSS
VL: B3 VL with Y91S, G93Y, W94D, F95S, Y96N, V98I
B5: G9.1-11 Fab (Fab, V domains shown)
VH: EVQLVESGGGLVQPGGSLRLSCAASGFTVYSSSIHWVRQAPGKGLEWVASIYSYYGYTSYADSVKGRFTISADTSKNTAYLQMNSLRAEDTAVYYCARSTEGYDRWGYYSSYWSSGLDYWGQGTLVTVSS
VL: B1 VL with S91T, S92Y, T93W, D94G, P95L
B6: G9.1-6 Fab (Fab, V domains shown)
VH: EVQLVESGGGLVQPGGSLRLSCAASGFTLSSSSIHWVRQAPGKGLEWVASIYSSYGSTSYADSVKGRFTISADTSKNTAYLQMNSLRAEDTAVYYCARSSHWYMYWSYWGWYIGMDYWGQGTLVTVSS
VL: B1 VL with S91Y, S92H, T93S, D94S, P95L, I96F
B7: G9.2-15 Fab (Fab, V domains shown)
VH: EVQLVESGGGLVQPGGSLRLSCAASGFTVSSSSIHWVRQAPGKGLEWVASIYSSSGYTSYADSVKGRFTISADTSKNTAYLQMNSLRAEDTAVYYCARNVENYPYWAWPWGYYGAIDYWGQGTLVTVSS
VL: B1 VL with T93W, D94G, P95L
B8: G9.2-1 Fab (Fab, V domains shown)
VH: EVQLVESGGGLVQPGGSLRLSCAASGFTLYSSSIHWVRQAPGKGLEWVASIYSSSGYTYYADSVKGRFTISADTSKNTAYLQMNSLRAEDTAVYYCARTYTWKSSWSYQTGYGLDYWGQGTLVTVSS
VL: DIQMTQSPSSLSASVGDRVTITCRASQSVSSAVAWYQQKPGKAPKLLIYSASSLYSGVPSRFSGSRSGTDFTLTISSLQPEDFATYYCQQYKSKYPFTFGQGTKVEIKR
B9: G9.2-3 Fab (Fab, V domains shown)
VH: EVQLVESGGGLVQPGGSLRLSCAASGFTFSSSSIHWVRQAPGKGLEWVASISSSSGSTSYADSVKGRFTISADTSKNTAYLQMNSLRAEDTAVYYCARPAYSYPYYYFHYGAMDYWGQGTLVTVSS
VL: B1 VL with T93S, D94S, P95L

Biological target: T1, human Galectin-9 CRD2 (residues 218-355), biotinylated (UniProt O00182 218-355, biotinylated in vitro with BirA (Avitag))
Assay: SPR

T1 sequence (O00182 218-355): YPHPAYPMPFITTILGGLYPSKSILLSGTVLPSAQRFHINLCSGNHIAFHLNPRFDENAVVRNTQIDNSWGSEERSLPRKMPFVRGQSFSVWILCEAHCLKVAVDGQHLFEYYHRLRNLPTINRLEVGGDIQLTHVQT

Binder	Kd [nM]
B1	0.219
B2	0.154

Biological target: human Galectin-9 CRD1 (residues 1-148), biotinylated (UniProt O00182 1-148, biotinylated in vitro with BirA (Avitag))
Assay: bead-based binding assay; apparent Kd; plots and legend state CRD1

human Galectin-9 CRD1 (residues 1-148), biotinylated, sequence (O00182 1-148): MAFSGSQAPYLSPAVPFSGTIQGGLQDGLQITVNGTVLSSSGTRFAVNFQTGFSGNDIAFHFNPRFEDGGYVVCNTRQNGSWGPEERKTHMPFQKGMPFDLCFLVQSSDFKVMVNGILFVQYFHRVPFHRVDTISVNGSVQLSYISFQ

Binder	Kd [nM]
B3	30.4
B4	9.8
B5	20.4
B6	29.2

Biological target: T1, human Galectin-9 CRD2 (residues …)
Assay: SPR
Remark: another data set of the same source

Binder	Kd [nM]
B1	0.232
B7	4.8

Biological target: T1, human Galectin-9 CRD2 (residues …)
Assay: bead-based binding assay; apparent Kd

Binder	Kd [nM]
B8	4170
B1	0.76
B9	1380
B7	0.71

From patent US20220340666A1 (published 2022)
